The supplement of paper PMC5998384

Assays:
[1] = test system: HeLa Kyoto; assay: solubility in G1/S (NP-40 vs SDS abundance) (log2 ratio); higher = more soluble; conditions: cell cycle stage: G1/S
[2] = test system: HeLa Kyoto; assay: solubility change mitosis vs G1/S (difference of NP-40 vs SDS log2 ratios) (log2 ratio difference); higher = more soluble in mitosis
[3] = test system: HeLa Kyoto; assay: thermal stability score vs G1/S (z-score of summed log2 fold changes over temperatures); higher = more thermally stable than in G1/S
[4] = test system: HeLa Kyoto; assay: melting temperature (median over replicates), in situ; higher = more thermally stable
[5] = cell cycle stage: early G1 (4.5 h after nocodazole release)
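For melting temperature (median over replicates), in situ in this document: HeLa Kyoto cells synchronized by double thymidine or nocodazole block, proteins quantified by TMT10plex mass spectrometry, three independent biological replicates.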
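For solubility change mitosis vs G1/S (difference of NP-40 vs SDS log2 ratios) in this document: synchronized HeLa Kyoto cells (double thymidine block for G1/S, nocodazole release for mitosis), protein amounts in NP-40 versus SDS lysates quantified by mass spectrometry, three biological replicates.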
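For solubility in G1/S (NP-40 vs SDS abundance) in this document: HeLa Kyoto cells arrested at G1/S by double thymidine block, proteins quantified by TMT10plex mass spectrometry in mild NP-40 versus SDS extracts, three biological replicates.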
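For thermal stability score vs G1/S (z-score of summed log2 fold changes over temperatures) in this document: synchronized HeLa Kyoto cells, proteins quantified by TMT10plex mass spectrometry, three biological replicates, mitosis taken 0.5 h after nocodazole release, G1/S directly after double thymidine block.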

Chain of ASNA1 (chain, as listed by the source): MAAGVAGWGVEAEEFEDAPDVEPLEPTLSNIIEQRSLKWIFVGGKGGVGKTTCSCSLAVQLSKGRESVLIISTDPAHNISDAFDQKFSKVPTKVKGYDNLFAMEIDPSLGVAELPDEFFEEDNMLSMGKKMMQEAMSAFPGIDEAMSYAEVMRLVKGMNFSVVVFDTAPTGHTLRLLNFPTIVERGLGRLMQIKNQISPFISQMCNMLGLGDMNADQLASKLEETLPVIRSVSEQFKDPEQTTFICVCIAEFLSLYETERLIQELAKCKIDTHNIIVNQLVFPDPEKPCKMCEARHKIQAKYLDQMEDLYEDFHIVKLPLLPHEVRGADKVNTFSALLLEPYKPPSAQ
Chain of CSNK2B (chain, as listed by the source): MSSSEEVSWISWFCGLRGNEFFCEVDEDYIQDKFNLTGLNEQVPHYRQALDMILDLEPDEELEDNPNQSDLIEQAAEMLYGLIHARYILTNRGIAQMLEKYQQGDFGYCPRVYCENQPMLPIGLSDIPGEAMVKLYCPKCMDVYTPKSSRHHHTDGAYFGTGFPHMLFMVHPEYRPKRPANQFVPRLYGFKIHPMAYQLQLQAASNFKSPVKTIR
Chain of LRP1 (chain, as listed by the source): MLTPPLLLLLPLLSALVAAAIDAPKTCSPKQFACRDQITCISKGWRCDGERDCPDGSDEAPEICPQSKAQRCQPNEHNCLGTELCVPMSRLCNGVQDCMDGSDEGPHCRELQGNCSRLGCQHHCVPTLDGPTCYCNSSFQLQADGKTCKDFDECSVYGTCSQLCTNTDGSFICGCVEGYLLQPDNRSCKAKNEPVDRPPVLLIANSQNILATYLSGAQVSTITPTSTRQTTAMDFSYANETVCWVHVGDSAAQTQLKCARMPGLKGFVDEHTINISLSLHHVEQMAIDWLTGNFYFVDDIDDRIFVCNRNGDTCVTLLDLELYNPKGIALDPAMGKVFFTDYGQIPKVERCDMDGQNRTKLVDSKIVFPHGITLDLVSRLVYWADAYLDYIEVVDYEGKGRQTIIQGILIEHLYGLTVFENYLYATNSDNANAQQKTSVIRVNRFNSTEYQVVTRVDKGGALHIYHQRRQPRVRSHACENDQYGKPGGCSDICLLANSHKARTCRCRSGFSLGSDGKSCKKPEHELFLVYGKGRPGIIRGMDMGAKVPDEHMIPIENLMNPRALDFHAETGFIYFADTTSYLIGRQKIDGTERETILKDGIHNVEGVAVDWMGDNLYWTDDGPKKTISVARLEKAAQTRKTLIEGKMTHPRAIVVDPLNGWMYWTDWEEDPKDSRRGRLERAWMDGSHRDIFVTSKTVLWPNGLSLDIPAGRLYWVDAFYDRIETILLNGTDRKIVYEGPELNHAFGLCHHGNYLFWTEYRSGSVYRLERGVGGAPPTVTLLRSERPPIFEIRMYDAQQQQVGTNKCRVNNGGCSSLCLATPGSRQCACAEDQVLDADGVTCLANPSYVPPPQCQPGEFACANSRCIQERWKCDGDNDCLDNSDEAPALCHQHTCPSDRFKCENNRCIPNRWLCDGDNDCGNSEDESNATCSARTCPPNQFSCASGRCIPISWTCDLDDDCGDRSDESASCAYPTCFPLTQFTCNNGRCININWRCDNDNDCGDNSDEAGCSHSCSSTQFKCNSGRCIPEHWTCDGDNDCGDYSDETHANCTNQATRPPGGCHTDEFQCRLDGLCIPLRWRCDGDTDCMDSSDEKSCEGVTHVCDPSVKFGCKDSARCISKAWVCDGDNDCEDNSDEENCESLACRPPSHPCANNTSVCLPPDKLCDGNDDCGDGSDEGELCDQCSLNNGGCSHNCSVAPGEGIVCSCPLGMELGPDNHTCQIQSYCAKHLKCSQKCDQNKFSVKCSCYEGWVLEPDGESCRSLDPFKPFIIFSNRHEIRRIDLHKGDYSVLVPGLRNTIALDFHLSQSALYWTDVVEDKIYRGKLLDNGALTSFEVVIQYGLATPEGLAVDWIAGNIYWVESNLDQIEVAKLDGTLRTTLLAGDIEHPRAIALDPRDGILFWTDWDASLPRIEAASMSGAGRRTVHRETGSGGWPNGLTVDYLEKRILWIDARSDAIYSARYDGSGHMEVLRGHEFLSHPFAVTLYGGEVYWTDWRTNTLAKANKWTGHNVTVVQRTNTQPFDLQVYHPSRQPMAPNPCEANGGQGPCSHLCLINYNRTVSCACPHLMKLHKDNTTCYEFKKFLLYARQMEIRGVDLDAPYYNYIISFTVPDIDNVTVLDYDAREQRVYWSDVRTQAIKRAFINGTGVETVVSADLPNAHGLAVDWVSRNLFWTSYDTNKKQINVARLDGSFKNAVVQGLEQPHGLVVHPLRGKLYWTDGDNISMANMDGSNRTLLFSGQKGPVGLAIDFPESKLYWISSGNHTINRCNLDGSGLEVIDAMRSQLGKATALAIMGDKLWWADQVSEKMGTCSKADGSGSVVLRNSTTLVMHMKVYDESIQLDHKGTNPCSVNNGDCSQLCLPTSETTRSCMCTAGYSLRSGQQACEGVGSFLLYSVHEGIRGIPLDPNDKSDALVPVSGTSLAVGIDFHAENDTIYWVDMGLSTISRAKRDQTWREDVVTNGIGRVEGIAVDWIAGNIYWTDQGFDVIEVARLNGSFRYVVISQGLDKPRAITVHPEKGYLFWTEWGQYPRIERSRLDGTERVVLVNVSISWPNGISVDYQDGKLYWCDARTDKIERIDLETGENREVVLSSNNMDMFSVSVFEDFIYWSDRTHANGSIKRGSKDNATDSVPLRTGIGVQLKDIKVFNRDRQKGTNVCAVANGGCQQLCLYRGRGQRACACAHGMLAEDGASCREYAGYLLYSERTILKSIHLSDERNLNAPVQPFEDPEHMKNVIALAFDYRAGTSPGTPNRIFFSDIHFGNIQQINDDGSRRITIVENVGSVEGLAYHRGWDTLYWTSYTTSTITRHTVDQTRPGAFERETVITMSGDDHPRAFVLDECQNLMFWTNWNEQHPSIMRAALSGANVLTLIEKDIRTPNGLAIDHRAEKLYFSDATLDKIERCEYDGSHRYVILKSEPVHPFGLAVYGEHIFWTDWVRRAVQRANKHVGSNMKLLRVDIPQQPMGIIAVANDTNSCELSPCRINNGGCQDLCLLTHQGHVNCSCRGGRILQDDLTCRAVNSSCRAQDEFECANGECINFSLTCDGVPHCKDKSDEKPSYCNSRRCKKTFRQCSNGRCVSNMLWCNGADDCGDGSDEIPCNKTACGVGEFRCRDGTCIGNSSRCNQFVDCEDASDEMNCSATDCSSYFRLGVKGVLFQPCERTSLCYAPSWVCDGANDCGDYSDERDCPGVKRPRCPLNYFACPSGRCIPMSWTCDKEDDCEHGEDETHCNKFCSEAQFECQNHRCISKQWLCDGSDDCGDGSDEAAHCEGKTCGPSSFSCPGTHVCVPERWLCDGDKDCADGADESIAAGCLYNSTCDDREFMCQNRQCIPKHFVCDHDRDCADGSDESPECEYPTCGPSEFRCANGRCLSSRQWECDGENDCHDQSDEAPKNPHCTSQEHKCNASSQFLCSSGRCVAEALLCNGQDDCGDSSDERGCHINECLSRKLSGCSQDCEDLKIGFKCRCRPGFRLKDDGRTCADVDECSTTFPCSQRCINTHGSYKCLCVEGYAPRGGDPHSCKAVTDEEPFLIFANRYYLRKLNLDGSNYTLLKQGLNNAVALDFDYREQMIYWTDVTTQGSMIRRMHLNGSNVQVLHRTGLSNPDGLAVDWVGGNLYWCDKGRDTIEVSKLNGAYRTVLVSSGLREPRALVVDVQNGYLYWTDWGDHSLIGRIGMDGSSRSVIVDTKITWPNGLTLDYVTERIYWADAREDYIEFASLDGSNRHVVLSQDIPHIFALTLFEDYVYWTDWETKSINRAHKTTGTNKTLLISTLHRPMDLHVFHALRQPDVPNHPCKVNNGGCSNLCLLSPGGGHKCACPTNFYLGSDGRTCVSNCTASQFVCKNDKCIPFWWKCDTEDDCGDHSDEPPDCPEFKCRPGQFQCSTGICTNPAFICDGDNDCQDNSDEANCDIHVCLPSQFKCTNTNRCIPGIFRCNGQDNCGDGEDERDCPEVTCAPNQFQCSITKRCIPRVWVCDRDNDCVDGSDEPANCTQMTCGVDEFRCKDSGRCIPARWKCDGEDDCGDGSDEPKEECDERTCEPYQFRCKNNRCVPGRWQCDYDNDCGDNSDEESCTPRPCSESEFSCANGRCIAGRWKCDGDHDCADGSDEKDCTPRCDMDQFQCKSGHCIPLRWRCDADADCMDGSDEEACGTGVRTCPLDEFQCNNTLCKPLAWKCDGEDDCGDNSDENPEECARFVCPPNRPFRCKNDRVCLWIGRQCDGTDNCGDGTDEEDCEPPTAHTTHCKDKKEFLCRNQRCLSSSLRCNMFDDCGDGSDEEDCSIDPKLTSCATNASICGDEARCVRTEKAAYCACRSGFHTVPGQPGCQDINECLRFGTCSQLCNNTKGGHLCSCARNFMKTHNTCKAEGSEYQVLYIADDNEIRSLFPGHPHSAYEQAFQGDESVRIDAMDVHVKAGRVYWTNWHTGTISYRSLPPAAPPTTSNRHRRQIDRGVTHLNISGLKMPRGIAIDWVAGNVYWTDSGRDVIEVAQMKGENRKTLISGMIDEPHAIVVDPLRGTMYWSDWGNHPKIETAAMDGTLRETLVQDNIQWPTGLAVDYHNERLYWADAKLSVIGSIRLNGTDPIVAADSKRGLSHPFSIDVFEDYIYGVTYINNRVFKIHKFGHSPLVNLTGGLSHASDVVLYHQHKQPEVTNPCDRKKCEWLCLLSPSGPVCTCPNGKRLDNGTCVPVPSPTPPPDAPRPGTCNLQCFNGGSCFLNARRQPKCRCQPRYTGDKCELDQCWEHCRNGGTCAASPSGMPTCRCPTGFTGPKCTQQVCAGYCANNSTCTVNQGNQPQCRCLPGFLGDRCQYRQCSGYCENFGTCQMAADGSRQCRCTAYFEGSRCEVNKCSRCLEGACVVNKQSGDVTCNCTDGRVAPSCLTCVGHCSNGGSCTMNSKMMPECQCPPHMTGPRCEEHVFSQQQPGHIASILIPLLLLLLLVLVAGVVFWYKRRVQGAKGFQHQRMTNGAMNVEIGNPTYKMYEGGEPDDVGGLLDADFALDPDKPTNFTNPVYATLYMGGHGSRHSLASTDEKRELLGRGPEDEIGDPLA

Substance | solubility in G1/S (log2) [1] | solubility change mitosis (log2) [2] | thermal stability score [3, 5] | thermal stability score ([3]; cell cycle stage: mitosis) | melting temperature ([4]; cell cycle stage: G1/S) [°C] | melting temperature ([4]; cell cycle stage: mitosis) [°C]
ABCC2 | -0.128 | -0.0305 | 0.294 | -0.626 | 51.6 | 51.6
ABCC5 | -0.243 | 0.0132 | -0.48 | -1.25 | 53.6 | 53.8
ACP2 | 0.434 | 0.018 | -1.34 | -0.755 | 56.1 | 57.2
AFG3L2 | 0.107 | -0.0792 | 2.84 | 0.443 | 51.8 | 51.9
AGAP3 | 0.259 | -0.0465 | 0.047 | 0.315 | 49.3 | 49.9
AGL | -0.215 | -0.204 | -0.229 | -0.757 | 51.1 | 50.6
AHCTF1 | -1.38 | 1.06 | -1.63 | -0.353 | 50.7 | 50.5
ALDH16A1 | 0.152 | -0.043 | -4.57 | -4.01 | 58 | 56.3
ARHGEF5 | 0.0254 | -0.0134 | 0.0128 | 1.32 | 50.6 | 51.4
ARNT | 0.243 | -0.182 | 0.603 | 0.868 | 51.9 | 51.7
ASNA1 | 0.349 | -0.258 | 0.0219 | 1.19 | 53.4 | 54.6
ATG3 | 0.11 | -0.0379 | 0.129 | -0.694 | 54.3 | 54.1
BAG3 | 0.185 | 1.06 | 1.43 | 5.24 | 53.6 | 53.1
BAZ1A | -0.551 | 0.356 | 1.48 | 3.95 | 45.9 | 49
BOD1L1 | -0.161 | 0.0131 | -3.05 | -3.12 | 56 | 56
C5ORF22 | 0.303 | -0.166 | -0.108 | 1.41 | 50.7 | –
CAMSAP1 | -0.149 | 0.0139 | -0.2 | 0.324 | 50.4 | 50.2
CASKIN2 | 0.412 | -0.0911 | 0.8 | 1.68 | 49.4 | 48.8
CCDC88A | 0.124 | -0.1 | -0.404 | 1.05 | 49 | 49
CDK13 | -0.604 | 0.194 | -0.541 | 0.202 | 50.9 | 52.5
CHD4 | -0.471 | 0.0937 | 3.38 | 8.56 | 46.9 | 49.1
CIAO1 | -0.222 | -0.176 | -0.588 | -2.26 | 52.5 | 52.9
CKAP5 | 0.0443 | -0.078 | -0.177 | -0.509 | 49.6 | 49.2

Substance | solubility in G1/S (log2) [1] | solubility change mitosis (log2) [2] | thermal stability score [3, 5] | thermal stability score ([3]; cell cycle stage: mitosis) | melting temperature ([4]; cell cycle stage: G1/S) [°C] | melting temperature ([4]; cell cycle stage: mitosis) [°C]
CLPX | 0.103 | -0.0641 | 2.55 | 0.77 | 50.6 | 50.2
COL5A2 | -0.0207 | 0.0391 | 2.88 | 0.949 | 54.6 | 57.9
CSNK2B | 0.227 | 0.0236 | 0.696 | 0.623 | 50.8 | 51.1
CTBP2 | 0.144 | -0.0285 | -2.44 | -6.63 | 55.3 | 53.4
DCK | 0.17 | -0.103 | 2.05 | 2.37 | 53.9 | 53.1
DENND4C | 0.0629 | -0.154 | 0.187 | 0.554 | 50.6 | 50.8
DHRS1 | 0.111 | 0.0211 | 0.897 | 0.418 | 50.7 | 51
DIDO1 | -0.458 | 0.231 | 0.743 | 4.5 | 49.1 | 49.8
DMD | 0.235 | -0.235 | 0.00802 | 0.278 | 49.9 | 50.2
DOCK10 | -0.189 | -0.143 | -1.12 | -0.873 | 52.3 | 51.8
DOCK11 | -0.234 | -0.145 | 0.076 | -0.52 | 51.4 | 51.5
EIF4H | 0.374 | 0.16 | -1.37 | -1.91 | 51.3 | 51.9
EIF5A | 0.638 | 0.0244 | 0.791 | 0.0469 | 49.7 | 50.7
EMC10 | 0.514 | -0.339 | 1.37 | 0.155 | 52.2 | 54.1
EPRS | -0.115 | -0.127 | -0.525 | 2.58 | 48.6 | 49
FAM98A | -0.0181 | 0.324 | -1.25 | -0.239 | 53.4 | 51.3
FAT1 | -0.133 | -0.025 | 0.357 | 0.56 | 53.5 | 53.5
FOCAD | -0.471 | -0.121 | -1.09 | -1.91 | 52.9 | 52.4
FRG1 | -0.326 | 0.0777 | 0.899 | 0.827 | 51.2 | 51.3
GMPPB | -0.038 | -0.108 | -1.12 | -4.14 | 54.3 | 54.1
GMPS | 0.0167 | -0.148 | 2.38 | 1.21 | 51.1 | 51.6
GOLGA3 | 0.313 | -0.048 | 0.197 | -1.4 | 51.8 | 50.4
GOLGB1 | 0.115 | -0.0748 | 1.43 | 4.58 | 48.6 | 49.9

Substance | solubility in G1/S (log2) [1] | solubility change mitosis (log2) [2] | thermal stability score [3, 5] | thermal stability score ([3]; cell cycle stage: mitosis) | melting temperature ([4]; cell cycle stage: G1/S) [°C] | melting temperature ([4]; cell cycle stage: mitosis) [°C]
GPATCH8 | -0.561 | 0.335 | 0.236 | 4.11 | 47.8 | 49.6
HADHA | 0.196 | -0.133 | -1.31 | 0.108 | 50.8 | 50.9
HCFC1 | 0.179 | -0.0808 | -0.303 | 0.00236 | 52.5 | 52.7
HEATR5B | -0.275 | -0.00901 | -0.405 | -0.289 | 50.8 | 52.4
HNRNPAB | 0.308 | 0.251 | -0.524 | -3.14 | 55.3 | 54.4
INADL | -0.0157 | -0.068 | 0.59 | 1.68 | 47.4 | 49.2
IRF2BP1 | 0.316 | -0.0595 | 1.4 | 3.22 | 46.9 | 49.5
ITPR3 | -0.508 | 0.0432 | 0.858 | 2.41 | 48.6 | 50.1
KDM3B | 0.00792 | -0.108 | 0.937 | 2.62 | 48.6 | 49.8
KDM5C | -0.0935 | -0.075 | 0.484 | 0.572 | 49.3 | 50
KIF21A | -0.0549 | -0.0922 | -1.01 | 0.181 | 49.5 | 50.3
KNTC1 | -0.33 | -0.188 | -0.336 | 0.546 | 49.6 | 49.4
LAMC1 | -0.0818 | -0.0329 | 2.27 | 3.77 | 53.5 | 53.9
LARP4B | -0.183 | 0.533 | -0.656 | -1.1 | 50.8 | 50
LIMD1 | 0.148 | -0.126 | 0.183 | -0.541 | 51.8 | 51.9
LRP1 | -0.0261 | -0.0628 | -1.09 | -1.22 | 55.5 | 55.1
LSM14B | 0.0485 | 0.137 | 0.76 | 1.45 | 49.6 | 50
MAAAAAAGEARRVLVYGGRGALGSRCVQAFRARNWWVASVDVVENEEASASIIVKMTDSFTEQADQVTAEVGKLLGEEKVDAILCVAGGWAGGNAKSKSLFKNCDLMWKQSIWTSTISSHLATKHLKEGGLLTLAGAKAALDGTPGMIGYGMAKGAVHQLCQSLAGKNSGMPPGAAAIAVLPVTLDTPMNRKSMPEADFSSWTPLEFLVETFHDWITGKNRPSSGSLIQVVTTEGRTELTPAYF [QDPR] | 0.236 | -0.0466 | -1.31 | -0.994 | 55.5 | 55.5
MAAAAAGTATSQRFFQSFSDALIDEDPQAALEELTKALEQKPDDAQYYCQRAYCHILLGNYCVAVADAKKSLELNPNNSTAMLRKGICEYHEKNYAAALETFTEGQKLDIETGFHRVGQAGLQLLTSSDPPALDSQSAGITGADANFSVWIKRCQEAQNGSESEVWTHQSKIKYDWYQTESQVVITLMIKNVQKNDVNVEFSEKELSALVKLPSGEDYNLKLELLHPIIPEQSTFKVLSTKIEIKLKKPEAVRWEKLEGQGDVPTPKQFVADVKNLYPSSSPYTRNWDKLVGEIKEEEKNEKLEGDAALNRLFQQIYSDGSDEVKRAMNKSFMESGGTVLSTNWSDVGKRKVEINPPDDMEWKKY [SUGT1] | 0.138 | -0.0323 | 0.39 | -0.171 | 51.5 | 52
MAAAAAQGGGGGEPRRTEGVGPGVPGEVEMVKGQPFDVGPRYTQLQYIGEGAYGMVSSAYDHVRKTRVAIKKISPFEHQTYCQRTLREIQILLRFRHENVIGIRDILRASTLEAMRDVYIVQDLMETDLYKLLKSQQLSNDHICYFLYQILRGLKYIHSANVLHRDLKPSNLLINTTCDLKICDFGLARIADPEHDHTGFLTEYVATRWYRAPEIMLNSKGYTKSIDIWSVGCILAEMLSNRPIFPGKHYLDQLNHILGILGSPSQEDLNCIINMKARNYLQSLPSKTKVAWAKLFPKSDSKALDLLDRMLTFNPNKRITVEEALAHPYLEQYYDPTDEPVAEEPFTFAMELDDLPKERLKELIFQETARFQPGVLEAP [MAPK3] | 0.391 | -0.228 | -0.246 | -0.247 | 51.3 | 50.2
PIKFYVE | -0.0952 | -0.153 | 0.473 | 0.726 | – | –
SNRPF | -1.06 | -0.0169 | -0.0433 | -0.451 | – | –
VPS13D | -0.404 | -0.104 | 0.236 | -0.0982 | – | –
